The values below come from paper PMC6321638 (2018).

The target in the assay is ALG-2 delta3-23 (Homo sapiens, UniProt O75340, Ca2+). As to the kind of experiment: ITC. (In ITC the heat of successive injections is recorded.)
Sequence of ALG-2 delta3-23 (O75340 3-23, stated change not applied): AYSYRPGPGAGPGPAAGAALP

B1: SOUL (protein)
chain: AEPLQPDPGAAEDAAAQAVETPGWKAPEDAGPQPGSYEIRHYGPAKWVSTSVESMDWDSAIQTGFTKLNSYIQGKNEKEMKIKMTAPVTSYVEPGSGPFSESTITISLYIPSEQQFDPPRPLESDVFIEDRAEMTVFVRSFDGFSSAQKNQEQLLTLASILREDGKVFDEKVYYTAGYNSPVKLLNRNNEVWLIQKNEPTKENE
Regarding B1, the Kd (commonly the equilibrium constant for the complex coming apart) turned out to be 32.4 nM.
